{"source": "paper PMC7343719", "about": "“Immobilization of the Highly Active UDP-Glucose Pyrophosphorylase From Thermocrispum agreste Provides a Highly Efficient Biocatalyst for the Production of UDP-Glucose” (Frontiers in Bioengineering and Biotechnology, 2020)", "key": {"purified protein [1]": {"substrate": "O=c1ccn([C@@H]2O[C@H](COP(=O)(O)OP(=O)(O)OP(=O)(O)O)[C@@H](O)[C@H]2O)c(=O)[nH]1", "assay": "purified protein", "type": "biochemical, Thermocrispum agreste", "settings": "free enzyme, 0.05-6 mM UTP, 30 mM G1P, 3 mM MgCl2, 50 mM Hepes, pH 7.0, 50°C"}, "purified protein [2]": {"substrate": "O=P(O)(O)O[C@H]1O[C@H](CO)[C@@H](O)[C@H](O)[C@H]1O", "assay": "purified protein", "type": "biochemical, Thermocrispum agreste", "settings": "free enzyme, 0.01-45 mM G1P, 2 mM UTP, 3 mM MgCl2, 50 mM Hepes, pH 7.0, 50°C"}}, "data": [{"protein": "TaGalU (Thermocrispum agreste) (protein, full-length, N-terminal His10 tag (pET16bP, no cleavage mentioned), codon-optimized gene (911 bp insert), expressed in E. coli BL21(DE3) pLysS; theoretical mass 33,678 Da; hexamer of about 193 kDa by SEC; EC 2.7.7.9) MTASAEHQTFTTAIVPAAGLGTRFLPTTKSVPKELLPVVDTPAIELVADEARQAGAERLVIVTSPAKQSIAAYFRPAPELERSLEEKGKTGQLAKIRRAPELLEVEVAIQEQALGLGHAVACAEPNLGPEDDVVAVLLPDDLVLPHGILERMAKVRAEHGGSVLCAFDIPKEEISAYGVFDVSDTDDADVKRVHGMVEKPPAEQAPSTFAAAGRYLLDRAIFDALRRIEPGAGGELQLTDAVALLIQEGHPVHVVVHRGVRHDLGNPGDFLRAAVDFALQDPDYGPELRAWLTDRIARP", "values": [{"measurement": "Km", "setting": "purified protein [1]", "result": 150, "unit": "µM"}, {"measurement": "Vmax", "setting": "purified protein [1]", "result": 1700, "unit": "µmol/min/mg"}, {"measurement": "kcat", "setting": "purified protein [1]", "result": 914, "unit": "s⁻¹"}, {"measurement": "kcat/Km", "setting": "purified protein [1]", "result": "6.09e+06", "unit": "M⁻¹ s⁻¹"}, {"measurement": "Km", "setting": "purified protein [2]", "result": 440, "unit": "µM"}, {"measurement": "Vmax", "setting": "purified protein [2]", "result": 1110, "unit": "µmol/min/mg"}, {"measurement": "kcat", "setting": "purified protein [2]", "result": 598, "unit": "s⁻¹"}, {"measurement": "kcat/Km", "setting": "purified protein [2]", "result": "1.36e+06", "unit": "M⁻¹ s⁻¹"}]}]}
